# Measurements as given in publication PMC3273807 (Nucleic Acids Research, 2011).
# B1: Wild-type FokI restriction endonuclease (enzyme)
# chain: KIRTFGWVQNPGKFENLKRVVQVFDRNSKVHNEVKNIKIPTLVKESKIQKELVAIMNQHDLIYTYKELVGTGTSIRSEAPCDAIIQATIADQGNKKGYIDNWSSDGFLRWAHALGFIEYINKSDSFVITDVGLAYSKSADGSAIEKEILIEAISSYPPAIRILTLLEDGQHLTKFDLGKNLGFSGESGFTSLPEGILLDTLANAMPKDKGEIRNNWEGSSDKYARMIGGWLDKLGLVKQGKKEFIIPTLGKPDNKEFISHAFKITGEGLKVLRRAKGSTKFTRVPKRVYWEMLATNLTDKEYVRTRRALILEILIKAGSLKIEQIQDNLKKLGFDEVIETIENDIKGLINTGIFIEIKGRFYQLKDHILQFVIPNRGVTKQLVKSELEEKKSELRHKLKYVPHEYIELIEIARNSTQDRILEMKVMEFFMKVYGYRGKHLGGSRKPDGAIYTVGSPIDYGVIVDTKAYSGGYNLPIGQADEMQRYVEENQTRNKHINPNEWWKVYPSSVTEFKFLFVSGHFKGNYKAQLTRLNHITNCNGAVLSVEELLIGGEMIKAGTLTLEEVRRKFNNGEINF
# Biological target: the molecule itself
# Experiment: fluorescence polarisation
protein,measurement,value
B1,binding result,binds
